Target: Programmed cell death-1 (human (endogenous in PBMCs)) (UniProt Q15116)
Sequence of UniProt Q15116 (Q15116 25-288): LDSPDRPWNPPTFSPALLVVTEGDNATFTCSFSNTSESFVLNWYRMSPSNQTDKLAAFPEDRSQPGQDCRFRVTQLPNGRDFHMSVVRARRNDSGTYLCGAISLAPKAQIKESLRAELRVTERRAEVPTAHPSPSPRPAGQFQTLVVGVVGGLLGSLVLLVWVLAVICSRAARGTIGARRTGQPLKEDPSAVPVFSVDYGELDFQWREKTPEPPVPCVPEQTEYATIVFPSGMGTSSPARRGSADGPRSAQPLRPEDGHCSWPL

Substance | reduction of intracellular IFN-gamma in PBMCs stimulated with anti-CD3/CD28 antibodies (FACS) | reduction of intracellular IL-2 in PBMCs stimulated with anti-CD3/CD28 antibodies (FACS) | reduction of intracellular IL-10 in PBMCs stimulated with anti-CD3/CD28 antibodies (FACS) | reduction of intracellular TNF-alpha in PBMCs stimulated with anti-CD3/CD28 antibodies (FACS) | increase of intracellular IL-2 in PBMCs stimulated with anti-CD3/CD28 antibodies (FACS)
soluble monomeric human PD-L1 (from UniProt Q9NZQ7 19-229) (domain or fragment) | 55.3% | 32.5% | 48.5% | 47.3% | –
soluble recombinant Fc fusion protein of hPD-L1 (from UniProt Q9NZQ7 19-229) | 15.1% | – | – | – | 14.2%
